Source: the supplement of paper PMC10567573

B1: CDKN1A (parent)
chain: GRKRRQTSMTDFYHSKRRLIFSKR

Variants of: B1
Assay: protein stability index of a GFP-peptide fusion (GPS, HEK-293T) (PSI 1-6); higher = more stable
Settings: c terminus: a fixed tail appended
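Also: lentivirally expressed fusions sorted by FACS into six bins by GFP to DsRed ratio, PSI derived from sequencing read proportions per bin multiplied by bin number.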

Protein stability index: each site, then its substitutions
I20: F 3.1 | N 3.51 | C 2.93 | M 2.86 | R 2.15
R4: E 3.62 | W 3.56 | K 3.46 | P 3.12 | G 3.58 | C 2.73
R2: K 3.08 | N 2.74 | V 3.22 | M 3.79 | W 2.53 | G 3.19 | H 2.33
S22: N 2.57 | Q 3.09 | D 2.17
K3: Y 5.28 | E 2.19 | Q 2.98 | C 3.54 | H 3.57 | S 3.96 | F 2.4 | A 3.12 | L 3.18 | N 2.73
K16: H 2.96 | P 2.07 | I 3.82 | F 2.28 | W 3.97 | E 3.76 | V 3.12
L19: C 2.81 | Q 3.85 | H 3.78 | K 3.86 | R 2.77 | G 2.71 | W 3.25 | M 3.98
S15: T 2.44 | N 3.16 | L 1.78
G1: K 3.34 | C 3.45 | A 2.81 | D 3.06 | S 3.84 | N 2.55 | Q 3.03 | I 2.94 | H 3.16 | P 3.63 | Y 2.99 | T 2.06
D11: H 1.82 | Q 2.89 | M 3.13 | Y 2.07 | S 3.06 | L 2.29 | K 2.77
S8: P 1.76 | C 3.59 | R 2.72 | Y 2.35 | K 3.4
T7: E 2.22 | W 2.36 | C 2.87 | I 2.38
K23: P 2.48 | A 3.19 | L 1.96 | N 2.3 | S 2.78 | W 2.87
F21: H 3 | T 3.22 | W 3.45 | G 3.13 | D 3.79 | I 3.27 | L 3.08 | K 3.14 | S 3.66 | A 2.4 | Y 3.38
R17: G 2.04 | K 3.87 | S 3.19 | V 4.34 | E 3.75 | T 3.02 | N 3.38 | F 2.19
R24: C 3.93 | S 3.62 | L 3.19 | W 3.26 | F 2.24 | E 2.67 | Q 3.2
F12: R 2.73 | S 2.42 | E 3.15 | V 3.38 | H 1.61
R5: T 3.64 | Y 3.17 | K 2.57 | N 2.74 | G 2.4 | A 2.74 | Q 2.87
H14: Y 4 | S 2.34 | M 3.3 | W 2.08
Q6: T 3.34 | W 2.47 | G 2.76 | D 2.1 | I 2.79 | R 2.4 | K 2.55 | H 3.62 | V 2.38
M9: I 3.23 | V 2.96 | L 2.98 | E 2.27 | C 2.34 | T 1.91 | F 2.6
R18: D 2.48 | T 2.45 | M 1.86 | G 2.8 | K 2.64 | P 2.11 | H 2.15 | L 3.13
Y13: W 2.7 | G 3.02 | S 3.57 | N 3.25 | H 3.22 | P 3.53 | C 3.2 | T 3.69 | E 3.73 | M 2.33
T10: C 3.68 | K 2.52 | Y 2.53 | F 3.46 | R 2.39 | M 2.38 | L 2.45 | W 2.16
